How the values were obtained:
[1] = molecular target: DPP IV from P. gingivalis (Porphyromonas gingivalis); experiment: cell-based or functional assay
[2] = tested on: Peptide 23

Residual activity of DPP IV, % (inhibitor at 10 mM) [1] [%]	Substance	Cleavage site [2]
1	Ala-Gly-Pro (peptide)	
30	Ala-Pro (peptide)	
	DPP IV from P. gingivalis	H-Ser-Pro-↑-Tyr-Ser-Ser-Asp-Thr-Thr
0	Val-Pro (peptide)	

— patent US6875851
